Results: US20200055939A1 (Genentech, published 2020)
Residue numbers refer to the chain shown, from its start. Like-named read-outs stand apart in the source and are kept apart here. One block for each binder: values may come before it.

Tests used:
[1] = molecular target: T1, MICA.008.a3.R202-S297.R202N mIgG2a.Glyco11 (human; mouse, UniProt Q29983 203-297, engineered N-linked glycosylation site R202N); test: ELISA, coated variant;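 further: ELISA with plates coated at 2 ug/ml with MICA*008 alpha 3 glycosylation variants as murine IgG2a Fc fusions, antibody binding detected by HRP anti-human IgG Fc and TMB absorbance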
T1 construct: not shown: murine IgG2a Fc
T1 chain: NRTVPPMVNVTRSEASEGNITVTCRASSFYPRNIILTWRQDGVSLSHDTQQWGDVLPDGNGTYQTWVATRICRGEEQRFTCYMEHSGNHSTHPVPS

[2] = molecular target: T2, MICA.008.a3.T204-S297.E215N.mIgG2a.Glyco12 (human; mouse, UniProt Q29983 204-297, engineered N-linked glycosylation site E215N); test: ELISA, coated variant;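 further: ELISA with plates coated at 2 ug/ml with MICA*008 alpha 3 glycosylation variants as murine IgG2a Fc fusions, antibody binding detected by HRP anti-human IgG Fc and TMB absorbance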
T2 construct: not shown: murine IgG2a Fc
T2 chain: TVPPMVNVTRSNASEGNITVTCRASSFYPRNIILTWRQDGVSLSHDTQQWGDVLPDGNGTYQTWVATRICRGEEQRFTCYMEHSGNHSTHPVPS

[3] = molecular target: T3, MICA.008.a3.T204-S297.I236T.mIgG2a.Glyco13 (human; mouse, UniProt Q29983 204-297, engineered N-linked glycosylation site created by I236T); test: ELISA, coated variant;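 further: ELISA with plates coated at 2 ug/ml with MICA*008 alpha 3 glycosylation variants as murine IgG2a Fc fusions, antibody binding detected by HRP anti-human IgG Fc and TMB absorbance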
T3 construct: not shown: murine IgG2a Fc
T3 chain: T2 chain with N12E, I33T

[4] = molecular target: T4, MICA.008.a3.T204-S297.G243N.mIgG2a.Glyco14 (human; mouse, UniProt Q29983 204-297, engineered N-linked glycosylation site G243N); test: ELISA, coated variant;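 further: ELISA with plates coated at 2 ug/ml with MICA*008 alpha 3 glycosylation variants as murine IgG2a Fc fusions, antibody binding detected by HRP anti-human IgG Fc and TMB absorbance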
T4 construct: not shown: murine IgG2a Fc
T4 chain: T2 chain with N12E, G40N

[5] = molecular target: T5, MICA.008.a3.T204-S297.H248N.mIgG2a.Glyco15 (human; mouse, UniProt Q29983 204-297, engineered N-linked glycosylation site H248N); test: ELISA, coated variant
T5 construct: not shown: murine IgG2a Fc
T5 chain: T2 chain with N12E, H45N

[6] = molecular target: T6, MICA.008.a3.T204-S297.C-terminal insert of N298.G299.S300.mIgG2a.Glyco17 (human; mouse, UniProt Q29983 204-297, engineered N-linked glycosylation site at inserted N298); test: ELISA, coated variant
T6 construct: not shown: murine IgG2a Fc
T6 chain: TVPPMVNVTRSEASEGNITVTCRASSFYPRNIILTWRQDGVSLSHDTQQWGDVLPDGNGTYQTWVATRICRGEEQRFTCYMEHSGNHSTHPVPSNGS

[7] = molecular target: T7, MICA008.His (human MICA*008 alpha 3 domain, His tagged) (human); test: SPR, antibody captured;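 further: SPR with antibody held by surface-bound anti-Fc while His-tagged alpha three domains flow over, Kd derived by fitting a one-to-one binding model to sensograms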
T7 construct: Also used for FPOP (expressed in CHO); also called huMICA*008 alpha 3-his; MICA*008 a3
T7 chain: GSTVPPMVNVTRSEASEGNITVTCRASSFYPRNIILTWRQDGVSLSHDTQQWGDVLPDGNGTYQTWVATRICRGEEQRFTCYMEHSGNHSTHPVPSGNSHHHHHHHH

[8] = molecular target: T8, MICA002.His (human MICA*002 alpha 3 domain, His tagged) (human); test: SPR, antibody captured;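 further: SPR with antibody held by surface-bound anti-Fc while His-tagged alpha three domains flow over, Kd derived by fitting a one-to-one binding model to sensograms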
T8 construct: also called huMICA*002 alpha 3-his
T8 chain: T7 chain with S28G, R32W, I35T, T37S, R73Q

[9] = molecular target: T9, MICA004.His (human MICA*004 alpha 3 domain, His tagged) (human); test: SPR, antibody captured;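 further: SPR with antibody held by surface-bound anti-Fc while His-tagged alpha three domains flow over, Kd derived by fitting a one-to-one binding model to sensograms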
T9 construct: also called huMICA*004 alpha 3-his
T9 chain: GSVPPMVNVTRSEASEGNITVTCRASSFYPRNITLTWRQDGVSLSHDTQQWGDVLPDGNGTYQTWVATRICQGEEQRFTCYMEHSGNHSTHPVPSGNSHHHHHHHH

[10] = molecular target: T10, MICB005.His (human MICB*005 alpha 3 domain, His tagged) (human); test: SPR, antibody captured;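 further: SPR with antibody held by surface-bound anti-Fc while His-tagged alpha three domains flow over, Kd derived by fitting a one-to-one binding model to sensograms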
T10 construct: also called huMICB*005 alpha 3-his
T10 chain: T7 chain with R12C, A15V, I35T, D48N, C72R, R73Q, S90G

[11] = molecular target: T11, MICA*008 on MEL-JUSO cells (human, UniProt Q29983 24-317); test: cell-based or functional assay
T11 chain: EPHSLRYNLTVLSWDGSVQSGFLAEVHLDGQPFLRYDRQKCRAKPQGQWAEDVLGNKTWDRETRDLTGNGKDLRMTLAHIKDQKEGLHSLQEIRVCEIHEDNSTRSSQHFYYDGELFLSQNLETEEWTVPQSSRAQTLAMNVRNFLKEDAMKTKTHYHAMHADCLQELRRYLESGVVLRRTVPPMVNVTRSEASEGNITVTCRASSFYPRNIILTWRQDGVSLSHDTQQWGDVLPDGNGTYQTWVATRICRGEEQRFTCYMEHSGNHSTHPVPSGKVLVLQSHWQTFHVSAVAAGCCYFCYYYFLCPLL

[12] = molecular target: T12, MICA*004 on HCC1534 cells (human, UniProt Q29983 24-383); test: cell-based or functional assay
[13] = molecular target: T13, MICB*005 on HCC1534 cells (human, UniProt Q29980 23-383); test: cell-based or functional assay
T13 sequence (looked up): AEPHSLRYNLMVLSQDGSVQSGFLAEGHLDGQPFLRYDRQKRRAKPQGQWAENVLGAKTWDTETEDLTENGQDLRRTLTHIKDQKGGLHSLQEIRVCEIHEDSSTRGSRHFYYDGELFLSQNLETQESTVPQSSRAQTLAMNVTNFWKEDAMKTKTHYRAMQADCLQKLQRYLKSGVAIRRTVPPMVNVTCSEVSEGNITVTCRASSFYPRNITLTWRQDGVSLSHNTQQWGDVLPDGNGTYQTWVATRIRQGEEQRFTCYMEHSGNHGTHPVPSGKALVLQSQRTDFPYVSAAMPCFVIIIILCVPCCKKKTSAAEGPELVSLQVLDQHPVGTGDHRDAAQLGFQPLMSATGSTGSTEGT

[14] = molecular target: T7, MICA008.His (human MICA*008 alpha 3 …); test: SPR (Biacore), MICA*008 alpha-3 domain
[15] = molecular target: T14, MICA.008.a3.T204-S297.R279N.mIgG2a.Glyco16 (human; mouse, UniProt Q29983 204-297, engineered N-linked glycosylation site R279N); test: ELISA, coated variant
T14 construct: not shown: murine IgG2a Fc
T14 chain: T2 chain with N12E, R76N

[16] = molecular target: T12, MICA*004 on HCC1534 cells; test: cell-based or functional assay; remark: listed apart in the source
[17] = molecular target: T13, MICB*005 on HCC1534 cells; test: cell-based or functional assay; remark: listed apart in the source
[18] = molecular target: T11, MICA*008 on MEL-JUSO cells; test: cell-based or functional assay
[19] = molecular target: T12, MICA*004 on HCC1534 cells; test: cell-based or functional assay; remark: listed apart in the source
[20] = molecular target: T13, MICB*005 on HCC1534 cells; test: cell-based or functional assay; remark: listed apart in the source
[21] = molecular target: MICA*002 on cells (PANC-1; B16-MICA002) (human, UniProt Q29983 24-383); test: cell-based or functional assay

- binding result [1]: binds
- binding result [2]: binds
- binding result [3]: binds
- binding result [4]: binds
- binding result [5]: binds
- binding result [6]: binds
- Kd [7]: 0.77 nM
- Kd [8]: 1.76 nM
- Kd [9]: 1.06 nM
- Kd [10]: 1.05 nM
- % max inhibition of shedding [11]: 70%
- EC50 of shedding inhibition [11]: 0.0285 µg/mL
- % max inhibition of shedding [12]: 69%
- EC50 of shedding inhibition [12]: 0.123 µg/mL
- % max inhibition of shedding [13]: 51%
- EC50 of shedding inhibition [13]: 0.0169 µg/mL
- Kd [14]: 3.8 nM
B1: 20G11 (antibody, V domains shown)
VH: DVQLVESGGGLVQPGGSRKLSCAASGFTFSTFGIHWVRQAPEKGLEWVAYISYDSRTIYYADTVKGRFTISRDNPKNTLFLQMTSLRSEDTAMYYCARWAYEGGVNYFDNWGQGTTLTVSS
VL: QIVLTQSPAIMSASLGERVTMTCTATSGVSSSYLHWYQQKPGSSPKLWIYSSSNLASGVPARFSGSGSGTSYSLTIGSMEAEDAATYYCHQFHRSPLTFGTGTKVEIK
notes: Mouse hybridoma antibody; constant regions differ by assay

- binding result [1]: binds
- binding result [2]: binds
- binding result [3]: binds
- binding result [5]: binds
- binding result [15]: binds
- binding result [6]: binds
- Kd [7]: 1.48 nM
- Kd [8]: 25.8 nM
- Kd [9]: 7.02 nM
- Kd [10]: 10.7 nM
- % max inhibition of shedding [11]: 81%
- EC50 of shedding inhibition [11]: 0.0103 µg/mL
- % max inhibition of shedding [12]: 76%
- EC50 of shedding inhibition [12]: 0.0689 µg/mL
- % max inhibition of shedding [13]: 54%
- EC50 of shedding inhibition [13]: 0.139 µg/mL
- Kd [14]: 1.9 nM
B4: 12H10 (antibody, V domains shown)
VH: DVQLQESGPGLVKPSQPLSLTCTVTGYSITSNYAWNWIRQFPGDKLEWMGYISSSGITKSNPSLKSRISITRDTSKNQFFLQLNSLTTEDTATYYCSRWSNWSFDVWGAGTTVTVSS
VL: DIQMTQTPSSLSVSLGDRVTINCRASQDIHNYFNWYQQKPDGTIKLLIYYTSRFHSGVPSRFSGSGSGTDYSLTISNLEEEDIATYFCQQGNSLPPTFGGGTKLEIK
notes: Mouse variable domains; constant regions differ by assay

Second part, the binder before the results:

B2: 18G3 (antibody, V domains shown)
VH: VQLQESGPGLVKPSQSLSLTCNVTGYSITGDYAWNWIRQFPGNKLEWIGYIGYTGSTTYNPSLKSRVSITRDTSKNQFFLQLNSVTPEDTATYYCARWRNWAMDYWGLGTSVTVSS
VL: DIQMTQTPSSLSASLGDRVTISCRANQDISHYLNWYQQKPDGAVKLLIYYTSRIHSGVPSRFSGSGSGTDYSLTIANLEQEDVATYFCQQGNTPPTTFGGGTKVEIK
notes: as for B4
- binding result [1]: binds
- binding result [2]: binds
- binding result [3]: binds
- binding result [5]: binds
- binding result [15]: binds
- binding result [6]: binds
- Kd [7]: 2.03 nM
- Kd [8]: 10.4 nM
- Kd [9]: 4.03 nM
- Kd [10]: 6.18 nM
- % max inhibition of shedding [11]: 75%
- EC50 of shedding inhibition [11]: 0.0191 µg/mL
- % max inhibition of shedding [12]: 74%
- EC50 of shedding inhibition [12]: 0.012 µg/mL
- % max inhibition of shedding [13]: 48%
- EC50 of shedding inhibition [13]: 0.0124 µg/mL
- Kd [14]: 2.6 nM

B3: 1D5 (antibody, V domains shown)
VH: EIQLQQSGPELVKPGASVKVSCKASGYAFTSQNIYWVKQSHGKSLEWIGYIEPYNVVPMYNPKFKGKATLTVDKSSSSAYIHLNSLTSEDSAIYYCARSGSSNFDYWGQGTTLTVSS
VL: EIILTQSPTTMAASPGEKITITCSASSSISSHYLHWYQQKSGFSPKLLIYRTSNLASGVPARFSGSGSGTSYSLTIGTMEAEDVATYYCQQGSSLPLTFGAGTKVEIK
notes: Mouse variable domains; constant regions differ by assay (human IgG1 or mouse IgG2a); also called anti-MIC 1D5
- maximum inhibition of shedding [16]: ~60%
- maximum inhibition of shedding [17]: ~50%
- binding result [1]: binds
- binding result [2]: binds
- binding result [3]: binds
- binding result [5]: binds
- binding result [6]: binds
- Kd [7]: 0.42 nM
- Kd [8]: 0.67 nM
- Kd [9]: 0.49 nM
- Kd [10]: 1.09 nM
- % max inhibition of shedding [11]: 77%
- EC50 of shedding inhibition [11]: 0.0087 µg/mL
- % max inhibition of shedding [12]: 81%
- EC50 of shedding inhibition [12]: 0.0435 µg/mL
- % max inhibition of shedding [13]: 54%
- EC50 of shedding inhibition [13]: 0.0128 µg/mL
- EC50 of shedding inhibition [18]: 0.0207 µg/mL
- Max % Inhibition of shedding [18]: 74%
- EC50 of shedding inhibition [19]: 0.0136 µg/mL
- Max % Inhibition of shedding [19]: 65%
- EC50 of shedding inhibition [20]: 0.0386 µg/mL
- Max % Inhibition of shedding [20]: 59%
- EC50 of shedding inhibition [21]: 0.0342 µg/mL
- Max % Inhibition of shedding [21]: 48%
- Kd [14]: 0.5 nM
